A word on the kcat: it is the maximal rate divided by the concentration of active sites. As usually defined, the KM is the concentration of substrate that gives half-maximal velocity.

± gives the standard error. For some assays here: Variants at the floor of the assay were thinned out. Bounds are passed on as bounds.

Experimental findings from the supplement of paper PMC7125110 are described below.

First the molecules themselves.
B1: glmS ribozyme (parent)
chain: AUAAAAGCGCCAGAACUACAGAAAUGUAGUUGACGAGGAGGAGGUUUAUCGAAUUUUCGGCGGAUGCCUCCAAA

Holding throughout (settings): with glucosamine-6-phosphate
Variants of B1 are the subject of series [1]. As to the kind of experiment: kcat; higher = faster cleavage; RNA array. In short, it runs like this:
(§1)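 Glucosamine-6-phosphate, from 40 μM to 10 mM in HEPES/KCl/Mg(OAc)2 buffer, was flowed over sequenced MiSeq chips carrying barcoded ribozyme variants transcribed in situ by E. coli RNA polymerase. A hybridised Cy3 probe tracked the variants at 37 °C as tiles were imaged over ~14 h. kobs, kcat and KM were obtained by fitting normalised per-tile medians to exponential decays and then applying weighted Michaelis–Menten fits across concentrations.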

Variants of B1 are the subject of series [2]. As to the kind of experiment: KM; higher = weaker cofactor use; RNA array. In short, it runs like this:
as §1

Series [3] covers variants of B1. As to the kind of experiment: self-cleavage kobs at 160 uM GlcN6P; higher = faster cleavage; RNA array. In short, it runs like this:
as §1

Series [4] covers variants of B1. Description: self-cleavage kobs at 640 uM GlcN6P; higher = faster cleavage; RNA array. In short, it runs like this:
as §1

The variants in series [5] derive from B1. As to the kind of experiment: self-cleavage kobs at 2500 uM GlcN6P; higher = faster cleavage; RNA array. In short, it runs like this:
as §1

Series [6] covers variants of B1. Description: self-cleavage kobs at 10000 uM GlcN6P; higher = faster cleavage; RNA array. In short, it runs like this:
as §1

The variants in series [7] derive from B1. Description: self-cleavage kobs at 40 uM GlcN6P; higher = faster cleavage; RNA array. In short, it runs like this:
as §1

C11U A15C: the turnover number (kcat) in series [1] was 0.000738 ± 0.00012 s⁻¹. For the same variant, in series [2], the Michaelis-Menten constant (KM) came to 2490 ± 850 µM. In addition, the “self-cleavage kobs at 160 uM GlcN6P” value in series [3] worked out at 2.57e-05 ± 1.1e-05 s⁻¹. Also, the “self-cleavage kobs at 640 uM GlcN6P” value in series [4] was 0.000194 ± 2.9e-05 s⁻¹. The “self-cleavage kobs at 2500 uM GlcN6P” value in series [5] was 0.000368 ± 6.1e-05 s⁻¹. For the same variant, the “self-cleavage kobs at 10000 uM GlcN6P” value in series [6] amounted to 0.000585 ± 4.9e-05 s⁻¹.
Consider C50U C58A, for which, in series [1], the turnover number (kcat) was less than 1e-05 s⁻¹. Further, the “self-cleavage kobs at 2500 uM GlcN6P” value in series [5] is less than 1e-05 s⁻¹. Besides, the “self-cleavage kobs at 10000 uM GlcN6P” value in series [6] was less than 1e-05 s⁻¹.
For the variant G13A U47G, the kcat in series [1] is 0.000123 ± 1.6e-05 s⁻¹. Moreover, the KM in series [2] worked out at 1830 ± 670 µM. Besides, in series [4], the “self-cleavage kobs at 640 uM GlcN6P” value is 2.44e-05 ± 9.5e-06 s⁻¹. In series [5], the “self-cleavage kobs at 2500 uM GlcN6P” value came out at 8.26e-05 ± 1.3e-05 s⁻¹. Besides, the “self-cleavage kobs at 10000 uM GlcN6P” value in series [6] came to 9.97e-05 ± 1.3e-05 s⁻¹.
In the case of A33U G66C, the kcat in series [1] worked out at 1.44e-05 ± 2.1e-06 s⁻¹. For the same variant, in series [2], the Michaelis constant (KM) is 3040 ± 1500 µM.
In the case of U45C U54C, the kcat in series [1] stood at 0.00224 ± 0.00051 s⁻¹. For the same variant, in series [2], the KM was determined as 2240 ± 770 µM. In series [3], the “self-cleavage kobs at 160 uM GlcN6P” value came to 0.000142 ± 3.9e-05 s⁻¹. For the same variant, the “self-cleavage kobs at 640 uM GlcN6P” value in series [4] stood at 0.00057 ± 0.00012 s⁻¹. Also, the “self-cleavage kobs at 2500 uM GlcN6P” value in series [5] was 0.00105 ± 0.00023 s⁻¹. For the same variant, in series [6], the “self-cleavage kobs at 10000 uM GlcN6P” value is 0.00213 ± 0.00063 s⁻¹.
On to G59U C61G, for which, in series [1], the catalytic constant (kcat) is less than 1e-05 s⁻¹. Besides, the “self-cleavage kobs at 10000 uM GlcN6P” value in series [6] was less than 1e-05 s⁻¹.
Take G32A G40C A48U: in series [1], the kcat was less than 1e-05 s⁻¹. In series [7], the “self-cleavage kobs at 40 uM GlcN6P” value is less than 1e-05 s⁻¹.
In the case of A39U G51A, the catalytic constant (kcat) in series [1] was less than 1e-05 s⁻¹. For the same variant, the “self-cleavage kobs at 40 uM GlcN6P” value in series [7] is less than 1e-05 s⁻¹. The “self-cleavage kobs at 160 uM GlcN6P” value in series [3] was less than 1e-05 s⁻¹. Also, the “self-cleavage kobs at 10000 uM GlcN6P” value in series [6] is less than 1e-05 s⁻¹.
For U54G U55A C70G, the kcat in series [1] worked out at 0.000128 ± 1.7e-05 s⁻¹. For the same variant, the “self-cleavage kobs at 40 uM GlcN6P” value in series [7] was 6.4e-05 ± 1.6e-05 s⁻¹. The “self-cleavage kobs at 640 uM GlcN6P” value in series [4] was 0.000102 ± 1.5e-05 s⁻¹. Moreover, the “self-cleavage kobs at 2500 uM GlcN6P” value in series [5] was 0.000157 ± 2.6e-05 s⁻¹. In addition, the “self-cleavage kobs at 10000 uM GlcN6P” value in series [6] amounted to 0.000145 ± 2.6e-05 s⁻¹.
For the variant A12C A15U, the turnover number (kcat) in series [1] stood at 0.00259 ± 0.00075 s⁻¹. Moreover, in series [2], the Michaelis constant (KM) amounted to 1430 ± 600 µM. For the same variant, in series [7], the “self-cleavage kobs at 40 uM GlcN6P” value came out at 7.96e-05 ± 8.9e-06 s⁻¹. Besides, the “self-cleavage kobs at 160 uM GlcN6P” value in series [3] was 0.000208 ± 3.6e-05 s⁻¹. Moreover, the “self-cleavage kobs at 640 uM GlcN6P” value in series [4] was determined as 0.00126 ± 0.0002 s⁻¹. Besides, in series [5], the “self-cleavage kobs at 2500 uM GlcN6P” value was found to be 0.0012 ± 0.00021 s⁻¹. Moreover, the “self-cleavage kobs at 10000 uM GlcN6P” value in series [6] stood at 0.00271 ± 0.00031 s⁻¹.
Consider A15G G29U C50G, for which the kcat in series [1] came to 3.72e-05 ± 6.3e-06 s⁻¹. In series [5], the “self-cleavage kobs at 2500 uM GlcN6P” value was 5.06e-05 ± 2.4e-05 s⁻¹.
With C58A A64G C71A, the kcat in series [1] is 2.69e-05 ± 7.4e-06 s⁻¹.
In the case of C11U U31A, the catalytic constant (kcat) in series [1] is 0.00134 ± 0.00062 s⁻¹. Moreover, the “self-cleavage kobs at 160 uM GlcN6P” value in series [3] stood at 9.69e-05 ± 2.6e-05 s⁻¹. The “self-cleavage kobs at 640 uM GlcN6P” value in series [4] amounted to 0.000376 ± 6.7e-05 s⁻¹. For the same variant, the “self-cleavage kobs at 2500 uM GlcN6P” value in series [5] came to 0.000431 ± 0.00012 s⁻¹. The “self-cleavage kobs at 10000 uM GlcN6P” value in series [6] was 0.00146 ± 0.00025 s⁻¹.
For the variant U56A U65A, the turnover number (kcat) in series [1] was 0.00156 ± 0.00058 s⁻¹. Besides, in series [7], the “self-cleavage kobs at 40 uM GlcN6P” value is 4.51e-05 ± 1.1e-05 s⁻¹. In series [3], the “self-cleavage kobs at 160 uM GlcN6P” value stood at 7.79e-05 ± 1.3e-05 s⁻¹. Further, in series [4], the “self-cleavage kobs at 640 uM GlcN6P” value was found to be 0.000368 ± 5.1e-05 s⁻¹. Further, the “self-cleavage kobs at 2500 uM GlcN6P” value in series [5] came out at 0.000569 ± 9.2e-05 s⁻¹. In series [6], the “self-cleavage kobs at 10000 uM GlcN6P” value stood at 0.00148 ± 0.00021 s⁻¹.
On to G62C C68A, for which, in series [1], the kcat amounted to 1.29e-05 ± 3.6e-06 s⁻¹.
A6G A12C: the kcat in series [1] was found to be 0.000313 ± 8.2e-05 s⁻¹. In addition, in series [5], the “self-cleavage kobs at 2500 uM GlcN6P” value came to 6.08e-05 ± 3e-05 s⁻¹. Further, in series [6], the “self-cleavage kobs at 10000 uM GlcN6P” value turned out to be 0.000159 ± 1.7e-05 s⁻¹.
A48C U69C: in series [1], the catalytic constant (kcat) is 7.16e-05 ± 1.1e-05 s⁻¹. For the same variant, the “self-cleavage kobs at 40 uM GlcN6P” value in series [7] was less than 1e-05 s⁻¹. Further, the “self-cleavage kobs at 160 uM GlcN6P” value in series [3] is less than 1e-05 s⁻¹. Also, the “self-cleavage kobs at 640 uM GlcN6P” value in series [4] is 6.02e-05 ± 1.9e-05 s⁻¹. The “self-cleavage kobs at 2500 uM GlcN6P” value in series [5] is 9.22e-05 ± 2.4e-05 s⁻¹. The “self-cleavage kobs at 10000 uM GlcN6P” value in series [6] was found to be 6.44e-05 ± 1.5e-05 s⁻¹.
C10U A14U: the kcat in series [1] was less than 1e-05 s⁻¹. For the same variant, the “self-cleavage kobs at 40 uM GlcN6P” value in series [7] is less than 1e-05 s⁻¹.
On to A53C U69G, for which the turnover number (kcat) in series [1] was determined as 4.01e-05 ± 8e-06 s⁻¹. Besides, the “self-cleavage kobs at 640 uM GlcN6P” value in series [4] is 5.28e-05 ± 1.3e-05 s⁻¹. In addition, the “self-cleavage kobs at 2500 uM GlcN6P” value in series [5] is 4.25e-05 ± 8.8e-06 s⁻¹.
